Each block holds one sequence with its values, some of them ahead of it.
Key:
[1] = molecular target: HLA-B*58:01; assay: IEDB peptide-MHC binding, purified MHC/competitive/fluorescence; ≥ and ≤ were set here for values at or beyond the usual limits of such assays; settings: source organism: Homo sapiens
[2] = molecular target: HLA-B*51:01; assay: as above; settings: source organism: Homo sapiens
[3] = molecular target: HLA-B*48:01; assay: IEDB peptide-MHC binding, purified MHC/competitive/fluorescence; filed as Kd, often an IC50 or EC50 that approximates it; ≥ and ≤ were set here for values at or beyond the usual limits of such assays; settings: source organism: Yersinia pestis Nepal516
[4] = molecular target: HLA-C*05:01; assay: IEDB peptide-MHC binding, purified MHC/direct/fluorescence; filed as Kd, often an IC50 or EC50 that approximates it; ≥ and ≤ were set here for values at or beyond the usual limits of such assays
[5] = molecular target: HLA-C*12:03; assay: as above; settings: source organism: human gammaherpesvirus 4
[6] = molecular target: HLA-A*68:23; assay: IEDB peptide-MHC binding, purified MHC/competitive/fluorescence; filed as Kd, often an IC50 or EC50 that approximates it; ≥ and ≤ were set here for values at or beyond the usual limits of such assays; settings: source organism: human gammaherpesvirus 4
[7] = molecular target: HLA-C*06:02; assay: as above; settings: source organism: human gammaherpesvirus 4
[8] = molecular target: HLA-B*27:20; assay: as above; settings: source organism: human gammaherpesvirus 4
[9] = molecular target: HLA-B*15:42; assay: as above; settings: source organism: human gammaherpesvirus 4
[10] = molecular target: HLA-B*83:01; assay: as above; settings: source organism: human gammaherpesvirus 4
[11] = molecular target: HLA-A*32:15; assay: as above; settings: source organism: human gammaherpesvirus 4
[12] = molecular target: HLA-B*40:13; assay: as above; settings: source organism: human gammaherpesvirus 4
[13] = molecular target: HLA-B*45:06; assay: as above; settings: source organism: human gammaherpesvirus 4
[14] = molecular target: HLA-C*14:02; assay: as above; settings: source organism: human gammaherpesvirus 4
[15] = molecular target: HLA-B*40:01; assay: IEDB peptide-MHC binding, purified MHC/direct/fluorescence; filed as Kd, often an IC50 or EC50 that approximates it; ≥ and ≤ were set here for values at or beyond the usual limits of such assays; settings: source organism: Camelpox virus CMS
[16] = molecular target: HLA-B*58:01; assay: as above; settings: source organism: Camelpox virus CMS
[17] = molecular target: HLA-B*15:01; assay: as above
[18] = molecular target: HLA-B*18:01; assay: as above; settings: source organism: Camelpox virus CMS
[19] = molecular target: HLA-A*69:01; assay: as above; settings: source organism: Camelpox virus CMS
[20] = molecular target: HLA-A*01:01; assay: as above; settings: source organism: Camelpox virus CMS
[21] = molecular target: HLA-B*07:02; assay: as above
[22] = molecular target: HLA-A*31:01; assay: as above; settings: source organism: Camelpox virus CMS
[23] = molecular target: HLA-B*27:05; assay: as above; settings: source organism: Camelpox virus CMS
[24] = molecular target: HLA-B*57:01; assay: as above; settings: source organism: Camelpox virus CMS
[25] = molecular target: HLA-A*11:01; assay: as above; settings: source organism: Camelpox virus CMS
[26] = molecular target: HLA-B*48:01; assay: as above; settings: source organism: Camelpox virus CMS
[27] = molecular target: HLA-A*03:01; assay: as above; settings: source organism: Camelpox virus CMS
[28] = molecular target: HLA-B*46:01; assay: as above; settings: source organism: Camelpox virus CMS
[29] = molecular target: HLA-A*26:03; assay: IEDB peptide-MHC binding, purified MHC/competitive/fluorescence; filed as Kd, often an IC50 or EC50 that approximates it; ≥ and ≤ were set here for values at or beyond the usual limits of such assays; settings: source organism: Variola virus
[30] = molecular target: HLA-A*02:01; assay: as above
[31] = molecular target: HLA-B*15:17; assay: as above
[32] = molecular target: HLA-A*68:02; assay: as above; settings: source organism: Variola virus
[33] = molecular target: HLA-C*04:01; assay: IEDB peptide-MHC binding, purified MHC/direct/fluorescence; filed as Kd, often an IC50 or EC50 that approximates it; ≥ and ≤ were set here for values at or beyond the usual limits of such assays; settings: source organism: Rickettsia sibirica 246
[34] = molecular target: HLA-B*51:01; assay: as above; settings: source organism: Rickettsia conorii
[35] = molecular target: HLA-B*15:01; assay: IEDB peptide-MHC binding, purified MHC/competitive/fluorescence; filed as Kd, often an IC50 or EC50 that approximates it; ≥ and ≤ were set here for values at or beyond the usual limits of such assays
[36] = molecular target: HLA-B*39:01; assay: as above; settings: source organism: Escherichia coli O139:H28 str. E24377A
[37] = molecular target: HLA-B*18:01; assay: as above; settings: source organism: Escherichia coli O139:H28 str. E24377A
[38] = molecular target: HLA-A*29:02; assay: as above; settings: source organism: Escherichia coli O139:H28 str. E24377A
[39] = molecular target: HLA-A*25:01; assay: as above; settings: source organism: Escherichia coli O139:H28 str. E24377A
[40] = molecular target: HLA-A*26:01; assay: as above; settings: source organism: Escherichia coli O139:H28 str. E24377A
[41] = molecular target: HLA-B*57:01; assay: as above; settings: source organism: Escherichia coli O139:H28 str. E24377A
[42] = molecular target: HLA-A*02:12; assay: as above; settings: source organism: Escherichia coli O139:H28 str. E24377A
[43] = molecular target: HLA-B*27:03; assay: as above; settings: source organism: Escherichia coli O139:H28 str. E24377A
[44] = molecular target: HLA-B*51:01; assay: as above
[45] = molecular target: HLA-A*03:01; assay: as above; settings: source organism: Escherichia coli O139:H28 str. E24377A
[46] = molecular target: HLA-A*80:01; assay: as above; settings: source organism: Escherichia coli O139:H28 str. E24377A
[47] = molecular target: HLA-B*08:01; assay: as above; settings: source organism: Escherichia coli 536
[48] = molecular target: HLA-B*07:02; assay: as above; settings: source organism: Escherichia coli 536
[49] = source organism: Camelpox virus CMS
[50] = source organism: Rickettsia sibirica 246
[51] = source organism: Escherichia coli O139:H28 str. E24377A
[52] = source organism: Escherichia coli 536

- IC50 [1]: 0.987 µM
- IC50 [2]: 1.52 µM
Sequence: MASSPTSI

Sequence: RMAMIPRTL
- Kd [3]: 0.0873 µM

Sequence: YAMAIRQAI
- Kd ([4]; source organism: human gammaherpesvirus 4): 2.23 µM
- Kd [5]: ≤ 0.001 µM
- Kd [6]: 0.19 µM
- Kd [7]: 0.101 µM
- Kd [8]: 0.0299 µM
- Kd [9]: ≥ 5 µM
- Kd [10]: 1.02 µM
- Kd [11]: 0.092 µM
- Kd [12]: 0.0239 µM
- Kd [13]: ≥ 5 µM
- Kd [14]: 0.0426 µM

Sequence: RVFDKADGK
- Kd [15]: ≥ 20 µM
- Kd [16]: ≥ 20 µM
- Kd [17, 49]: ≥ 20 µM
- Kd [18]: ≥ 20 µM
- Kd [19]: ≥ 20 µM
- Kd [20]: ≥ 20 µM
- Kd [21, 49]: ≥ 20 µM
- Kd [22]: 0.0997 µM
- Kd [23]: ≥ 20 µM
- Kd [24]: ≥ 20 µM
- Kd [25]: 0.127 µM
- Kd [26]: ≥ 20 µM
- Kd [27]: 0.0788 µM
- Kd [28]: ≥ 20 µM
- Kd [29]: ≥ 20 µM
- Kd ([30]; source organism: Variola virus): 1.05 µM
- Kd ([31]; source organism: Variola virus): ≥ 20 µM
- Kd [32]: ≥ 20 µM

Sequence: FADSDNIAM
- Kd [4, 50]: ≤ 0.001 µM
- Kd [17, 50]: ≥ 20 µM
- Kd ([21]; source organism: Rickettsia conorii): ≥ 20 µM
- Kd [33]: ≥ 20 µM
- Kd [34]: ≥ 20 µM

Sequence: SIPFGLMSA
- Kd [30, 51]: ≥ 20 µM
- Kd [35, 51]: ≥ 20 µM
- Kd [36]: ≥ 20 µM
- Kd [37]: ≥ 20 µM
- Kd [38]: ≥ 20 µM
- Kd [39]: ≥ 20 µM
- Kd [40]: ≥ 20 µM
- Kd [41]: ≥ 20 µM
- Kd [42]: 0.881 µM
- Kd [31, 51]: ≥ 20 µM
- Kd [43]: ≥ 20 µM
- Kd [44, 51]: ≥ 20 µM
- Kd [45]: ≥ 20 µM
- Kd [46]: ≥ 20 µM

- Kd [35, 52]: ≥ 20 µM
- Kd [47]: ≥ 20 µM
- Kd [48]: 0.0512 µM
- Kd [44, 52]: 3.66 µM
Sequence: SPLHVFVAV

From the Immune Epitope Database (IEDB)
